Reference: US20230064378A1

Columns and labels:
[1] = molecular target: human FcγRIIA_131H (CD32a) extracellular domain (human) (UniProt P12318); assay: SPR, antibody captured on Protein A, steady state, 25 °C
[2] = molecular target: human FcγRIIA_131R (CD32a) extracellular domain (human) (UniProt P12318); assay: as above
[3] = molecular target: human FcγRIIIA_158F (CD16a) extracellular domain (human) (UniProt P08637); assay: as above
[4] = molecular target: human FcγRIIb (CD32b) extracellular domain (human) (UniProt P31994); assay: as above
Chain of human FcγRIIb (CD32b) extracellular domain (human) (P31994 43-217): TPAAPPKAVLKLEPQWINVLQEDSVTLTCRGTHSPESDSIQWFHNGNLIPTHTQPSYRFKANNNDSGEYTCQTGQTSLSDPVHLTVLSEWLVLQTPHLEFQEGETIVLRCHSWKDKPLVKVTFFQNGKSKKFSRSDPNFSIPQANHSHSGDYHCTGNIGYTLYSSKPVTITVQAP

[5] = molecular target: human FcγRI (CD64) extracellular domain (human) (UniProt P12314); assay: SPR, antibody captured on Protein A, receptor ECD as analyte, 25 °C
Chain of human FcγRI (CD64) extracellular domain (human) (P12314 16-292): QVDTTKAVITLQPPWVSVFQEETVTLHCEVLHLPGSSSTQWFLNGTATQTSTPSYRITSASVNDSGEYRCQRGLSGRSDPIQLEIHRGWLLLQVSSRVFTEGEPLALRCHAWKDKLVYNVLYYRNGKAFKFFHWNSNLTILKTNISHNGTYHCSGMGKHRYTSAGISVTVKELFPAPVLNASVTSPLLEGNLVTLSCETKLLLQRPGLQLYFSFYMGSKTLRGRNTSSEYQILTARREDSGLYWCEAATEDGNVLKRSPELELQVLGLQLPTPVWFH

[6] = molecular target: human FcγRIIIA_158V (CD16a) extracellular domain (human) (UniProt P08637); assay: SPR, antibody captured on Protein A, steady state, 25 °C
Chain of human FcγRIIIA_158V (CD16a) extracellular domain (human) (P08637 17-208 F176V): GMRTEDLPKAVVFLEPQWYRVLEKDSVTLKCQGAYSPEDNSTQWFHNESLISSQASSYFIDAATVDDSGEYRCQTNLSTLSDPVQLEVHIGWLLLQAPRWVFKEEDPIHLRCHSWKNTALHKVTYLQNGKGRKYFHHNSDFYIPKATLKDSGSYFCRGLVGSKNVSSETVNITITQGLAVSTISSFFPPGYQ

Chain of human FcγRIIA_131R (CD32a) extracellular domain (human) (P12318 34-217 H167R): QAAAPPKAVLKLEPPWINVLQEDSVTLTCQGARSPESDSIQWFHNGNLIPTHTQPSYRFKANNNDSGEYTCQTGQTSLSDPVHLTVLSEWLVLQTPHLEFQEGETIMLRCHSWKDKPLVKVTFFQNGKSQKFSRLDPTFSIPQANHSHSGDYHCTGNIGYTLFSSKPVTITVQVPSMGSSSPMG
Chain of human FcγRIIA_131H (CD32a) extracellular domain (human) (P12318 34-217): as the sequence (P12318 34-217 H167R) above, with R134H counted along it
Chain of human FcγRIIIA_158F (CD16a) extracellular domain (human) (P08637 17-208): as the sequence (P08637 17-208 F176V) above, with V160F counted along it

| Kd [1] | Kd [2] | Kd [3] | Kd [4] | Kd [5] | Kd [6] | Substance |
| --- | --- | --- | --- | --- | --- | --- |
| 680 nM | 740 nM | 1290 nM | 3110 nM | 0.0521 nM | – | Hu IgG1 (antibody) |
| 5310 nM | 2310 nM | – | 2780 nM | 0.419 nM | 7350 nM | Hu IgG4 SP (antibody) |
